This note sets out measurements from patent US20230192860A1 (Bristol-Myers Squibb, published 2023).

Experiment [1] addresses T1, monovalent hVISTA-ECD (amino acids 32-193 of SEQ ID NO: 1 with a 7xHis tail) (human, UniProt Q9H7M9 33-193).
T1 construct: analyte of the SPR assays; also called huVISTA-His; human VISTA-ECD
Description: SPR 37C, Ab on Protein A, hVISTA-ECD 50-0.2 nM, pH 6.0. As to the method:
(§1) Surface plasmon resonance (SPR) analysis was performed to measure the association rates (defined as ka or kₒₙ, 1/Ms units), dissociation rates (defined as kd or koff, s⁻¹ units) and affinity constants (defined as KD, M units) for VISTA Abs at acidic and physiological pHs using a Biacore® T200 instrument (GE Healthcare). […] Antibodies were diluted to 20 nM in PBST pH 7.4, and were captured across active biosensor flow cells at 5 ul/min for 50 seconds. A concentration series of 50 - 0.2 nM monovalent hVISTA-ECD (SEQ ID NO: 325) was prepared in pH 7.4 and 6.0 running buffers, and was injected over the captured antibodies at 40 ul/min to measure association and dissociation. Two 15 second injections of 10 mM glycine pH 1.5 were used to regenerate the Protein A capture surface between assay cycles. Rate constants kₐ (kₒₙ) and kd (kₒff) were derived from reference flow cell and 0 nM blank-subtracted sensorgrams, and were fit to a 1:1 binding model in Biacore® T200 Evaluation Software v.2.0.

The target in experiment [2] is T1, monovalent hVISTA-ECD (amino acids …). Description: SPR 37C, Ab on Protein A, hVISTA-ECD 50-5 nM, pH 7.4, average. As to the method: Binding of several preparations of each of the ‘029 progeny clones and of the parent ‘029 antibodies, formatted as IgG1.3 antibodies, to human VISTA at pH 6.0 and 7.4 was measured by Surface plasmon resonance (SPR). SPR analysis was performed to measure koff and KD binding affinity measurements for VISTA Abs at acidic and neutral pHs using a Biacore® T100 instrument (GE Healthcare). […] Antibodies were diluted to 25 nM in PBST pH 7.4, and were captured across active biosensor flow cells at 5 ul/min for 60 seconds. A concentration series of 50 - 5 nM monovalent hVISTA-ECD (SEQ ID NO: 325) was prepared in pH 7.4 and 6.0 running buffers, and was injected over the captured antibodies at 40 ul/min to measure association and dissociation. Two 15 second injections of 10 mM glycine pH 1.5 were used to regenerate the Protein A capture surface between assay cycles. Rate constants ka (kₒₙ) and kd (koff) were derived from reference flow cell and 0 nM blank-subtracted sensorgrams, and were fit to a 1:1 binding model in Biacore® T200 Evaluation Software v.2.0. The affinity constant, KD was calculated as the ratio of rate constants koff/kₒₙ for each VISTA antibody.

For experiment [3] the target is unchanged. The experiment in a line: SPR 37C, Ab on Protein A, hVISTA-ECD 50-0.2 nM, column headed pH 7 (running buffer pH 7.4 in the text). The procedure: as §1
The target is the same in experiment [4]. The experiment in a line: SPR, pH 7.4 over pH 6.0. The procedure:
(§2) Further binding kinetic experiments were performed at various pHs on VISTA antibodies described herein by SPR as generally described in Example 9 above. Antibodies were normalized to 50 nM concentration in PBST pH 7.4 and captured on a Protein A CM5 chip (ID 4931) by injecting for 45 seconds at a 5 µL/min flow rate. An 8-point human VISTA titration ([…]) was prepared in PBST at pH 7.4, 6.9, 6.45, and 6.0. Titrations were injected over the captured antibodies for 180 seconds at 30 µL/min. Sensorgrams were fit to a 1:1 binding model in T200 evaluation software and the kinetic constants were reported.
Each table reports the data at one of the four tested pHs (7.4, 6.9, 6.45, and 6.0, respectively). The 8-point hVISTA titration used in these assays was chosen to provide increased confidence in kinetic values reported at neutral pH conditions. A relatively stringent cutoff for non-binding was applied in this assay. Certain progeny of P1-061029 antibody (P1-068757, ‘759, ‘765, ‘771, and ‘775) show no binding to hVISTA at micromolar concentrations at pH 7.4, while ‘761 and ‘767 show no binding to hVISTA at 100 nM at pH 7.4 but do show binding to hVISTA at micromolar concentrations.

The target is the same in experiment [5]. Description: SPR, Ab on Protein A, hVISTA 100-7.8 nM, pH 7.4. The procedure: as §2
Experiment [6] shares this target. The experiment in a line: SPR 37C, Ab on Protein A, hVISTA-ECD 50-5 nM, pH 6.0, average. Put shortly: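 Biacore T100 at 37C: antibodies (IgG1.3 format, 25 nM in PBST pH 7.4) captured on Protein A, then 50 - 5 nM monovalent hVISTA-ECD injected in pH 7.4 or 6.0 running buffer. Reference- and blank-subtracted sensorgrams fit to 1:1 model; KD = koff/kon.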
For experiment [7] the target is unchanged. Description: SPR 37C, Ab on Protein A, hVISTA-ECD 50-5 nM, pH 6.0, average; ka printed Too fast, KD ND.
In experiment [8] the target is T2, human VISTA on cells (293T cells ectopically expressing full-length human VISTA); AML3 cells and human … (human, UniProt Q9H7M9 33-311).
T2 sequence: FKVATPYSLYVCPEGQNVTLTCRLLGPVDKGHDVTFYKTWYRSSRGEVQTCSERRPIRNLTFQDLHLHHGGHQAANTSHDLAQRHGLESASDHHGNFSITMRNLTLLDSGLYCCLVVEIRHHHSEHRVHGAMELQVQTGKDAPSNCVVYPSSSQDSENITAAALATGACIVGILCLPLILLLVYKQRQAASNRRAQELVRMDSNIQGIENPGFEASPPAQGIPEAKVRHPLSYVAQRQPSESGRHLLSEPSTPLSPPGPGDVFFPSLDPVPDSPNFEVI
Description: cell-based or functional assay.

Experiment [9] addresses T3, BSA (Calbiochem catalog #126593) (UniProt P02769 25-607).
T3 construct: pI control protein
Description: SPR 25C, Ab on Protein A, pH 6 and pH 7.4.

In experiment [10] the target is T4, avidin (ThermoFisher Scientific catalog #21128) (UniProt P02701 25-152).
T4 construct: pI control protein
T4 sequence (P02701 25-152 limits assumed): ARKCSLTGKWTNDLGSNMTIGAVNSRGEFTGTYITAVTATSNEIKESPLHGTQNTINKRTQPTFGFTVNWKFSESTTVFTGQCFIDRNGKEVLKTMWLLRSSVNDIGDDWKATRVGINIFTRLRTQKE
The experiment in a line: SPR 25C, Ab on Protein A, pH 6 and pH 7.4.

Experiment [11] addresses T1, monovalent hVISTA-ECD (amino acids …). The experiment in a line: SPR, Ab on Protein A, hVISTA 100-7.8 nM, pH 7.4 (second row of this ligand).
The target is the same in experiment [12]. Description: SPR 37C, Ab on Protein A, pH 6.0.

Numbering of substitutions follows the chain as printed. Names may count otherwise.

T3 sequence (P02769 25-607 limits assumed): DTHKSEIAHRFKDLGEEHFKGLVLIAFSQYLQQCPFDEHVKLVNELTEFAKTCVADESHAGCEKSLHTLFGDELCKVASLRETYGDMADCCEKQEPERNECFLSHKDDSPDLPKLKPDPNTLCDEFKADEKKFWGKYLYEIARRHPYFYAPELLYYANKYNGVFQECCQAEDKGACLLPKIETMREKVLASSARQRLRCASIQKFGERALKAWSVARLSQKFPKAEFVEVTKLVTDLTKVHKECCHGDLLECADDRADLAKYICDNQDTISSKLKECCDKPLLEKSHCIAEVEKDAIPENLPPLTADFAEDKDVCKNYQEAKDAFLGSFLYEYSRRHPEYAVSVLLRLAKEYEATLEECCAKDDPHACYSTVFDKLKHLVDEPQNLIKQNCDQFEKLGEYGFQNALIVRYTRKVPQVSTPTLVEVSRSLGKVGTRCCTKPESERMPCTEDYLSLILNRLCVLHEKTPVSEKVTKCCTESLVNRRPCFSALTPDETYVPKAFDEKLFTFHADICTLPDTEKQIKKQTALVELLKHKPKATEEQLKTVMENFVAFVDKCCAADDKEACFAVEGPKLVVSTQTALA

B1: P1-061015.IgG1.3 (antibody, V domains shown)
VH: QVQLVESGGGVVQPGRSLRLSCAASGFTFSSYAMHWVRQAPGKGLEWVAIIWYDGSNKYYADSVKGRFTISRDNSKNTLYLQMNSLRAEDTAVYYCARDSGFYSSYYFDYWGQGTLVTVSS
VL: EIVLTQSPATLSLSPGERATLSCRASQSVSSSYLAWYQQKPGQAPRLLIYDASNRATGIPARFSGSGSGTDFTLTISSLEPEDFATYYCQQYNSYPYTFGQGTKLEIKR
notes: IgG1.3
On to B1, for which the koff in experiment [1] came out at 0.0014 s⁻¹; in experiment [2], 0.002 s⁻¹; in experiment [3] it was 0.0023 s⁻¹; in experiment [5], 0.00168 s⁻¹; in [6] it was 0.00095 s⁻¹. Further, the Kd in experiment [2] is 8.8 nM; in [5] it was 5.12 nM; in experiment [6] it was 0.54 nM. Also, the kon in [2] came out at 230000 M⁻¹ s⁻¹; in experiment [5], 329000 M⁻¹ s⁻¹; in experiment [6], 1.8e+06 M⁻¹ s⁻¹. Also, the “7.4 KD/ 6.0 KD” value in experiment [4] was 8.2. In addition, in experiment [4], the “7.4 kd/ 6.0 kd” value was 1.1.

B2: P1-068740 (antibody, human IgG1, kappa, V domains shown)
VH: QVQLVESGGGVVQPGRSLRLSCAASGFTFSDYAMHWVRQAPGKGLEWVAIIWYDGSDKDYADSVKGRFTISRDNSKNTLYLQMNSLRAEDTAVYYCARDSGFYDSYYFDDWGQGTLVTVSS
VL: B1 VL
notes: IgG1.3
With B2, the koff in experiment [7] worked out at 0.047 s⁻¹.

B3: VISTA.5 (mAb1) (antibody, V domains shown)
VH: AVQLQESGPGLVRPSQSLSLTCTVTDYSITSDYAWNWIRQFPGSKLEWLGFIGYSGNTNYNPSLESRISITRHTSKNQFFLHLNSMTTEDTATYYCARSLYGGSHWYFDVWGAGTTVTVSS
VL: DIVLTQSPASLAVSLGQRATISCRGSESVEYYGTILMQWYQQKPGQPPKLLIYGASNVESGVPARFSGSGSGTDFSLNIHPVEEDDIAMYFCQQSRKVPWTFGGGTKLEIK
Take B3: the “EC50, AML3 viability (Cell Titer Glo) with anti-human IgG secondary antibody-drug conjugate” value in experiment [8] was determined as 0.485 µg/mL.

B4: P1-068767.IgG1.3 (antibody, V domains shown)
VH: EVQLVESGGGLVQPGKSLRLSCAASGFTLEDYAMHWVRQAPGKGLEWVSGIDWNSENIGYADSVKGRFTISRDNAKNSLYLQMNSLRTEDTALYYCAKVPGYSGGWIDAEDDWGQGTMVTVSS
VL: not shown
notes: IgG1.3; also called P1-068767-22; P1-068767 hIgG1.3f
For B4, the binding result in experiment [9] and in experiment [10] was “no binding (tested: 10 RU; analyte 100-10 nM)” in each case.

B5: P1-72000 (P1-061029_F100fE_V102D) (antibody, V domains shown)
VH: B4 VH with E30D, D52N, E56A
VL: not shown
notes: also called P1-072000-3
In the case of B5, in experiment [11], the Kd was determined as 1400 nM, the koff was 0.032 s⁻¹ and the association rate constant (kon) is 24000 M⁻¹ s⁻¹. Also, in experiment [4], the “7.4 KD/ 6.0 KD” value amounted to 258 and the “7.4 kd/ 6.0 kd” value came out at 14.2. In addition, in [5], the Kd came to 2700 nM, the off-rate (koff) was 0.038 s⁻¹ and the kon turned out to be 14000 M⁻¹ s⁻¹.

B6: P1-077869 (P1-068748 D57K) (antibody, V domains shown)
VH: B2 VH with D31H, Y32H, D57N, D110Y
VL: EIVLTQSPATLSLSPGERATLSCRASQSVSSSYLAWYQQKPGQAPRLLIYDASNRATGIPARFSGSGSGTDFTLTISSLEPEDFATYYCQQYNSYPYTFGQGTKLEIK
Take B6: the “fold improvement of off-rate against the '748 antibody” value (“fold improvement of off-rate” for short) in experiment [12] was ≤ 2 fold.

B7: P1-077883 (P1-068748 H31S D57K) (antibody, V domains shown)
VH: B2 VH with D31S, Y32H, D57N, D110Y
VL: B6 VL
For B7, the “fold improvement of off-rate” value in [12] was ≤ 2 fold.

B8: P1-077877 (P1-068748 H32Y D57K) (antibody, V domains shown)
VH: B2 VH with D31H, D57N, D110Y
VL: B6 VL
notes: the sister clones carry the VL of P1-061015
In the case of B8, in experiment [12], the “fold improvement of off-rate” value is ≤ 2 fold.

As a reminder, the koff is the rate constant with which the complex falls apart. The low end stands for a long-lived complex, the high end for a short-lived complex. As usually defined, the Kd is the equilibrium constant for the complex coming apart. Low readings indicate a tighter complex, high ones a looser complex. What is called kon is a measure of how fast the partners come together. High values mean faster complex formation, low ones slower complex formation.
